Test [1] concerns the target T1, PD-1 at the surface of Jurkat-PD-1 cells (human, UniProt Q15116 25-288).
T1 construct: whole, on cells
Description: flow cytometry, Jurkat-PD-1 cells. On the technique in general: In flow cytometry, cells or beads pass a laser one at a time.

For the next test, the target named is T2, recombinant human PD-1 (human, UniProt Q15116 25-167, limits assumed).
T2 construct: Soluble antigen in SPR; also called rhPD-1
Description: SPR. The method, then:
(§1) SPR measures the interactions between two or more biomolecules. In capture kinetics analysis, an antibody is immobilized onto a gold-plated prism. The immobilized antibody is referred to as the ligand. An injection of antigen, referred to as the analyte, is carried out, often as a concentration series. The captured analytes are removed from the sensor chip surface using a regenerating agent, for example a low pH or high ionic strength solution. If investigating binding to several analytes, the antibodies are recaptured from solution before each analyte titration series. The instrument records the changes in refractive indexes (due to the accumulation or depletion of mass) in time and plots the results as sensorgrams.
(§2) Affinity measurements with respect to BTN3A, PD-1 and PD-L1 were performed by SPR technology, for instance in a Carterra LSA Platform instrument using a soluble form of the antigen as the analyte and the antibody as the ligand. Binding was also assessed through in cellulo binding assays, on cell lines (e.g. HEK293T cells) genetically modified to express the targets of interest or genetically modified to extinct target expression.
(§3) The 69 produced bsAbs and control mAbs were also evaluated for their binding affinity to recombinant proteins by SPR assays. The equilibrium dissociation constant (KD) was then calculated for constructs showing detectable binding.
(In general: In SPR one partner is held on a chip, and binding of the other changes the refractive index at the surface.)

A further test concerns the target T3, recombinant human BTN3A1 (human, UniProt O00481 30-254).
T3 construct: Soluble form of the antigen used in SPR; also called rhBTN3A1; recombinant BTN3A1 protein
The test is described as follows: SPR. As to the method:
as §1, §2, §3

Test [2] concerns the target T4, BTN3A1 at the surface of HEK-BTN3A1 cells (human, UniProt O00481 30-513).
T4 construct: HEK 293T BTN2A/BTN3A KO cells transduced with a BTN3A1 expressing vector
Description: flow cytometry, HEK-BTN3A1 cells.

The text below walks through data of patent US20260265379A1 (IMCHECK THERAPEUTICS, published 2026).

T4 sequence (O00481 30-513 limits assumed): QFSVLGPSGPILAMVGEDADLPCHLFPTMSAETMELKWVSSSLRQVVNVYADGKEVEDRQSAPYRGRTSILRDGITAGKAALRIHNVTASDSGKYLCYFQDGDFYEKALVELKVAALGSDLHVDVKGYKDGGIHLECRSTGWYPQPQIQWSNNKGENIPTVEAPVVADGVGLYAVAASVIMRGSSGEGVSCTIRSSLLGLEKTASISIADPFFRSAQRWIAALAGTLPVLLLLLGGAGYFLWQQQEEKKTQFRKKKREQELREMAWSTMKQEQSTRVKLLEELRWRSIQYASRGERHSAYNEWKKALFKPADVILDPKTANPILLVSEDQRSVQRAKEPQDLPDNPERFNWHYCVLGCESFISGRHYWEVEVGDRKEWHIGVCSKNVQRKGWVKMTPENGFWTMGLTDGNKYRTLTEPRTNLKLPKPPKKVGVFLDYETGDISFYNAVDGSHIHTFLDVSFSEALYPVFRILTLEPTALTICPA
T1 sequence (Q15116 25-288): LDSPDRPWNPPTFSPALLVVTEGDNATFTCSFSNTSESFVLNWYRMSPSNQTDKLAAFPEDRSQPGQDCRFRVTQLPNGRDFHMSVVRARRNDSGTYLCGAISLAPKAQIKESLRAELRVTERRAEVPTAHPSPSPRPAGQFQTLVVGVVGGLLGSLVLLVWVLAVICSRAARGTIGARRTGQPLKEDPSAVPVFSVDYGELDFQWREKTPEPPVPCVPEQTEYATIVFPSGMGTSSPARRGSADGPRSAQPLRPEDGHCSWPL
T2 sequence (Q15116 25-167 limits assumed): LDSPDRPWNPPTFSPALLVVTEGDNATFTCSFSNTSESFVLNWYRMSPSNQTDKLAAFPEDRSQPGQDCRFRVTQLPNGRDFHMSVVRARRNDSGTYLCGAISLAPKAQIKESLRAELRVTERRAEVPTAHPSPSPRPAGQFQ
T3 sequence (O00481 30-254 limits assumed): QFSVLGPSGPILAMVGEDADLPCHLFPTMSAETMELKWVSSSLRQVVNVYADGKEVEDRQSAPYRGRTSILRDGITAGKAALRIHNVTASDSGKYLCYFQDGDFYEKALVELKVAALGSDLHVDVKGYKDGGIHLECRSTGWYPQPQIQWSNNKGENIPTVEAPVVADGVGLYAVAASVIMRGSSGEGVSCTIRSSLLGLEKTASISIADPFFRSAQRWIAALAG

B1: bsAb022 (bispecific antibody)
heavy: QVQLVQSGVEVKKPGASVKVSCKASGYTFTNYYMYWVRQAPGQGLEWMGGINPSNGGTNFNEKFKNRVTLTTDSSTTTAYMELKSLQFDDTAVYYCARRDYRFDMGFDYWGQGTTVTVSSGGGGSGGGGSGGGGSGGGGSEIVLTQSPATLSLSPGERATLSCRASKGVSTSGYSYLHWYQQKPGQAPRLLIYLASYLESGVPARFSGSGSGTDFTLTISSLEPEDFAVYYCQHSRDLPLTFGGGTKVEIKGGGGSGGGGSGGGGSGGGGSQVQLVQSGAEVKKPGASVKLSCKASGYIFTRYYMYWVKQRPGQGLEWIGEINPNNGGTKFNEKFKNRATLTVDKSISTAYMELSRLRSDDTAVYYCSREDDYDGTPFAMDYWGQGTLVTVSSASTKGPSVFPLAPSSKSTSGGTAALGCLVKDYFPEPVTVSWNSGALTSGVHTFPAVLQSSGLYSLSSVVTVPSSSLGTQTYICNVNHKPSNTKVDKRVEPKSCDKTHTCPPCPAPEFEGGPSVFLFPPKPKDTLMISRTPEVTCVVVDVSHEDPEVKFNWYVDGVEVHNAKTKPREEQYNSTYRVVSVLTVLHQDWLNGKEYKCKVSNKALPASIEKTISKAKGQPREPQVYTLPPSREEMTKNQVSLTCLVKGFYPSDIAVEWESNGQPENNYKTTPPVLDSDGSFFLYSKLTVDKSRWQQGNVFSCSVMHEALHNHYTQKSLSLSPG
light: not shown
notes: IgG anti-BTN3A, scFv anti-PD-1
For the molecule B1, the entries for the “MFI at 10 nM” value in test [1] and in test [2] were 216000 MFI and 224000 MFI, respectively. In addition, the entries for the “MFI at 100 nM” value in test [1] and in test [2] were 367000 MFI and 992000 MFI, respectively. Besides, the figures for the dissociation constant Kd with recombinant human PD-1 and with recombinant human BTN3A1 were 0.928 nM and 0.163 nM, respectively.

B2: bsAb025 (bispecific antibody)
heavy: QVQLVQSGVEVKKPGASVKVSCKASGYTFTNYYMYWVRQAPGQGLEWMGGINPSNGGTNFNEKFKNRVTLTTDSSTTTAYMELKSLQFDDTAVYYCARRDYRFDMGFDYWGQGTTVTVSSASTKGPSVFPLAPSSKSTSGGTAALGCLVKDYFPEPVTVSWNSGALTSGVHTFPAVLQSSGLYSLSSVVTVPSSSLGTQTYICNVNHKPSNTKVDKKVEPKSCDKTHTGGSSGSGSGSTGTSSSGTGTSAGTTGTSASTSGSGSGGGGGSGGGGSAGGEIVLTQSPATLSLSPGERATLSCRASKGVSTSGYSYLHWYQQKPGQAPRLLIYLASYLESGVPARFSGSGSGTDFTLTISSLEPEDFAVYYCQHSRDLPLTFGGGTKVEIKRTVAAPSVFIFPPSDEQLKSGTASVVCLLNNFYPREAKVQWKVDNALQSGNSQESVTEQDSKDSTYSLSSTLTLSKADYEKHKVYACEVTHQGLSSPVTKSFNRGECGGGGSGGGGSGGGGSGGGGSQVQLVQSGAEVKKPGASVKLSCKASGYIFTRYYMYWVKQRPGQGLEWIGEINPNNGGTKFNEKFKNRATLTVDKSISTAYMELSRLRSDDTAVYYCSREDDYDGTPFAMDYWGQGTLVTVSSASTKGPSVFPLAPSSKSTSGGTAALGCLVKDYFPEPVTVSWNSGALTSGVHTFPAVLQSSGLYSLSSVVTVPSSSLGTQTYICNVNHKPSNTKVDKRVEPKSCDKTHTCPPCPAPEFEGGPSVFLFPPKPKDTLMISRTPEVTCVVVDVSHEDPEVKFNWYVDGVEVHNAKTKPREEQYNSTYRVVSVLTVLHQDWLNGKEYKCKVSNKALPASIEKTISKAKGQPREPQVYTLPPSREEMTKNQVSLTCLVKGFYPSDIAVEWESNGQPENNYKTTPPVLDSDGSFFLYSKLTVDKSRWQQGNVFSCSVMHEALHNHYTQKSLSLSPG
light: not shown
notes: IgG anti-BTN3A, scFab anti-PD-1
In the case of B2, the “MFI at 10 nM” value in test [1] is 110000 MFI; in test [2] it was 177000 MFI. The “MFI at 100 nM” value was 358000 MFI in test [1] and 669000 MFI in test [2]. Also, the dissociation constant (Kd) in the test with recombinant human PD-1 amounted to 1.1 nM; with recombinant human BTN3A1, 0.154 nM.

B3: bsAb037 (bispecific antibody)
heavy 1: QVQLVQSGVEVKKPGASVKVSCKASGYTFTNYYMYWVRQAPGQGLEWMGGINPSNGGTNFNEKFKNRVTLTTDSSTTTAYMELKSLQFDDTAVYYCARRDYRFDMGFDYWGQGTTVTVSS
heavy 2: DIQMTQSPSSLSASVGDRVTITCHASQNINVWLSWYQQKPGKAPKLLIYKASNLHTGVPSRFTGSGSGTDFTFTISSLQPEDIATYYCQQGQTYPYTFGQGTKLEIKGGGGSGGGGSGGGGSGGGGSQVQLVQSGAEVKKPGASVKLSCKASGYIFTRYYMYWVKQRPGQGLEWIGEINPNNGGTKFNEKFKNRATLTVDKSISTAYMELSRLRSDDTAVYYCSREDDYDGTPFAMDYWGQGTLVTVSSGGGGSGGGGSGGGGSGGGGS
light: EIVLTQSPATLSLSPGERATLSCRASKGVSTSGYSYLHWYQQKPGQAPRLLIYLASYLESGVPARFSGSGSGTDFTLTISSLEPEDFAVYYCQHSRDLPLTFGGGTKVEIKRTVAAPSVFIFPPSDEQLKSGTASVVCLLNNFYPREAKVQWKVDNALQSGNSQESVTEQDSKDSTYSLSSTLTLSKADYEKHKVYACEVTHQGLSSPVTKSFNRGECGGGGSGGGGSGGGGSGGGGSQVQLVQSGAEVKKPGASVKLSCKASGYIFTRYYMYWVKQRPGQGLEWIGEINPNNGGTKFNEKFKNRATLTVDKSISTAYMELSRLRSDDTAVYYCSREDDYDGTPFAMDYWGQGTLVTVSSGGGGSGGGGSGGGGSGGGGSDIQMTQSPSSLSASVGDRVTITCHASQNINVWLSWYQQKPGKAPKLLIYKASNLHTGVPSRFTGSGSGTDFTFTISSLQPEDIATYYCQQGQTYPYTFGQGTKLEIK
notes: one Fab arm anti-PD-1, two scFv anti-BTN3A; not shown: IgG1 CH1-hinge-CH2-CH3; CH2-CH3 (Fc)
Regarding B3, the figures for the “MFI at 10 nM” value in test [1] and in test [2] were 238000 MFI and 585000 MFI, respectively. Further, the results for the “MFI at 100 nM” value in test [1] and in test [2] were 270000 MFI and 1.25e+06 MFI, respectively. In addition, the Kd in the test with recombinant human PD-1 was 1.1 nM; with recombinant human BTN3A1, 0.086 nM.

B4: bsAb039 (bispecific antibody)
heavy (part 1 of 2): QVQLVQSGVEVKKPGASVKVSCKASGYTFTNYYMYWVRQAPGQGLEWMGGINPSNGGTNFNEKFKNRVTLTTDSSTTTAYMELKSLQFDDTAVYYCARRDYRFDMGFDYWGQGTTVTVSS
heavy (part 2 of 2): GGGGSGGGGSGGGGSGGGGSDIQMTQSPSSLSASVGDRVTITCHASQNINVWLSWYQQKPGKAPKLLIYKASNLHTGVPSRFTGSGSGTDFTFTISSLQPEDIATYYCQQGQTYPYTFGQGTKLEIKGGGGSGGGGSGGGGSGGGGSQVQLVQSGAEVKKPGASVKLSCKASGYIFTRYYMYWVKQRPGQGLEWIGEINPNNGGTKFNEKFKNRATLTVDKSISTAYMELSRLRSDDTAVYYCSREDDYDGTPFAMDYWGQGTLVTVSS
heavy: GGGGSGGGGSGGGGSGGGGSDIQMTQSPSSLSASVGDRVTITCHASQNINVWLSWYQQKPGKAPKLLIYKASNLHTGVPSRFTGSGSGTDFTFTISSLQPEDIATYYCQQGQTYPYTFGQGTKLEIKGGGGSGGGGSGGGGSGGGGSQVQLVQSGAEVKKPGASVKLSCKASGYIFTRYYMYWVKQRPGQGLEWIGEINPNNGGTKFNEKFKNRATLTVDKSISTAYMELSRLRSDDTAVYYCSREDDYDGTPFAMDYWGQGTLVTVSS
light: EIVLTQSPATLSLSPGERATLSCRASKGVSTSGYSYLHWYQQKPGQAPRLLIYLASYLESGVPARFSGSGSGTDFTLTISSLEPEDFAVYYCQHSRDLPLTFGGGTKVEIKRTVAAPSVFIFPPSDEQLKSGTASVVCLLNNFYPREAKVQWKVDNALQSGNSQESVTEQDSKDSTYSLSSTLTLSKADYEKHKVYACEVTHQGLSSPVTKSFNRGEC
notes: as for B3
Turning to B4, the “MFI at 10 nM” value turned out to be 294000 MFI in test [1] and 1.14e+06 MFI in test [2]. Besides, the results for the “MFI at 100 nM” value in test [1] and in test [2] were 283000 MFI and 1.81e+06 MFI, respectively. For the same molecule, the dissociation constant Kd with recombinant human PD-1 worked out at 2.1 nM; with recombinant human BTN3A1 it was 0.187 nM.

B5: bsAb053 (bispecific antibody)
heavy (part 1 of 2): QVQLVQSGVEVKKPGASVKVSCKASGYTFTNYYMYWVRQAPGQGLEWMGGINPSNGGTNFNEKFKNRVTLTTDSSTTTAYMELKSLQFDDTAVYYCARRDYRFDMGFDYWGQGTTVTVSS
heavy (part 2 of 2): GGGGSGGGGSGGGGSGGGGSQVQLVQSGAEVKKPGASVKLSCKASGYIFTRYYMYWVKQRPGQGLEWIGEINPNNGGTKFNEKFKNRATLTVDKSISTAYMELSRLRSDDTAVYYCSREDDYDGTPFAMDYWGQGTLVTVSSGGGGSGGGGSGGGGSGGGGSDIQMTQSPSSLSASVGDRVTITCHASQNINVWLSWYQQKPGKAPKLLIYKASNLHTGVPSRFTGSGSGTDFTFTISSLQPEDIATYYCQQGQTYPYTFGQGTKLEIK
heavy: QVQLVQSGVEVKKPGASVKVSCKASGYTFTNYYMYWVRQAPGQGLEWMGGINPSNGGTNFNEKFKNRVTLTTDSSTTTAYMELKSLQFDDTAVYYCARRDYRFDMGFDYWGQGTTVTVSS
light: EIVLTQSPATLSLSPGERATLSCRASKGVSTSGYSYLHWYQQKPGQAPRLLIYLASYLESGVPARFSGSGSGTDFTLTISSLEPEDFAVYYCQHSRDLPLTFGGGTKVEIKRTVAAPSVFIFPPSDEQLKSGTASVVCLLNNFYPREAKVQWKVDNALQSGNSQESVTEQDSKDSTYSLSSTLTLSKADYEKHKVYACEVTHQGLSSPVTKSFNRGEC
notes: IgG anti-PD-1, one scFv anti-BTN3A; not shown: IgG1 CH1-hinge-CH2-CH3
For B5, the entries for the “MFI at 10 nM” value in test [1] and in test [2] were 187000 MFI and 494000 MFI, respectively. The figures for the “MFI at 100 nM” value in test [1] and in test [2] were 424000 MFI and 1.24e+06 MFI, respectively. In addition, the dissociation constant Kd with recombinant human PD-1 came out at 0.984 nM; with recombinant human BTN3A1 it was 0.393 nM.

By Kd is commonly meant the equilibrium constant for the complex coming apart.
